# In US20040115667A1, “Dna-sequences, which code for an apoptosis signal transduction protein” (priority 2000, published 2004):
# Entries after “also recorded” stand apart in the source; their conditions may differ. Peptide text beside a SMILES is read from it. * marks the point of attachment. Cbz = O=C(OCc1ccccc1)*; CH2F = FC*
# B1: full-length Bcl-rambo: full-length human Bcl-rambo protein, amino acids 1-485, expressed from plasmid (protein, UniProt Q9BXK5 1-485, looked up)
# chain: MASSSTVPLGFHYETKYVVLSYLGLLSQEKLQEQHLSSPQGVQLDIASQSLDQEILLKVKTEIEEELKSLDKEISEAFTSTGFDRHTSPVFSPANPESSMEDCLAHLGEKVSQELKEPLHKALQMLLSQPVTYQAFRECTLETTVHASGWNKILVPLVLLRQMLLELTRRGQEPLSALLQFGVTYLEDYSAEYIIQQGGWGTVFSLESEEEEYPGITAEDSNDIYILPSDNSGQVSPPESPTVTTSWQSESLPVSLSASQSWHTESLPVSLGPESWQQIAMDPEEVKSLDSNGAGEKSENNSSNSDIVHVEKEEVPEGMEEAAVASVVLPARELQEALPEAPAPLLPHITATSLLGTREPDTEVITVEKSSPATSLFVELDEEEVKAATTEPTEVEEVVPALEPTETLLSEKEINAREESLVEELSPASEKKPVPPSEGKSRLSPAGEMKPMPLSEGKSILLFGGAAAVAILAVAIGVALALRKK
# modifications: full-length
# notes: full-length human Bcl-rambo protein, amino acids 1-485, expressed from plasmid
# B2: amino acids 1-223: N-terminal domain of Bcl-rambo with homology to Bcl-2 (protein, UniProt Q9BXK5 1-223, looked up, fragment)
# chain: MASSSTVPLGFHYETKYVVLSYLGLLSQEKLQEQHLSSPQGVQLDIASQSLDQEILLKVKTEIEEELKSLDKEISEAFTSTGFDRHTSPVFSPANPESSMEDCLAHLGEKVSQELKEPLHKALQMLLSQPVTYQAFRECTLETTVHASGWNKILVPLVLLRQMLLELTRRGQEPLSALLQFGVTYLEDYSAEYIIQQGGWGTVFSLESEEEEYPGITAEDSND
# B3: C-terminal BHNo domain (amino acids 205-459): C-terminal domain with BHNo region and membrane anchor; range printed as 205-459, probably 205-485 (protein, UniProt Q9BXK5 205-485, looked up, fragment)
# chain: SLESEEEEYPGITAEDSNDIYILPSDNSGQVSPPESPTVTTSWQSESLPVSLSASQSWHTESLPVSLGPESWQQIAMDPEEVKSLDSNGAGEKSENNSSNSDIVHVEKEEVPEGMEEAAVASVVLPARELQEALPEAPAPLLPHITATSLLGTREPDTEVITVEKSSPATSLFVELDEEEVKAATTEPTEVEEVVPALEPTETLLSEKEINAREESLVEELSPASEKKPVPPSEGKSRLSPAGEMKPMPLSEGKSILLFGGAAAVAILAVAIGVALALRKK
# B4: 1-203: truncated N-terminal domain of Bcl-rambo; printed 1-203, elsewhere 1-201 (protein, UniProt Q9BXK5 1-201, looked up, fragment)
# chain: MASSSTVPLGFHYETKYVVLSYLGLLSQEKLQEQHLSSPQGVQLDIASQSLDQEILLKVKTEIEEELKSLDKEISEAFTSTGFDRHTSPVFSPANPESSMEDCLAHLGEKVSQELKEPLHKALQMLLSQPVTYQAFRECTLETTVHASGWNKILVPLVLLRQMLLELTRRGQEPLSALLQFGVTYLEDYSAEYIIQQGGWG
# B5: 205-459 construct: C-terminal domain of Bcl-rambo without the anchor region (amino acids 205-459) (protein, UniProt Q9BXK5 205-459, looked up, fragment)
# chain: SLESEEEEYPGITAEDSNDIYILPSDNSGQVSPPESPTVTTSWQSESLPVSLSASQSWHTESLPVSLGPESWQQIAMDPEEVKSLDSNGAGEKSENNSSNSDIVHVEKEEVPEGMEEAAVASVVLPARELQEALPEAPAPLLPHITATSLLGTREPDTEVITVEKSSPATSLFVELDEEEVKAATTEPTEVEEVVPALEPTETLLSEKEINAREESLVEELSPASEKKPVPPSEGKSRLSPAGEMKPMPLSEGKS
# How the values were obtained:
# [1] = test system: Bcl-rambo-induced cell death (caspase-3 activity) in 293T cells; assay: Effect of apoptosis inhibitors on apoptotic activity of full-length Bcl-rambo in 293T cells; format: cell-based, human
# Description: The effect of different apoptosis inhibitors on the apoptotic activity of Bcl-rambo is investigated in FIG. 6. For this, 293T cells were transfected for 27 hours (shown in FIG. 6A) with 2 μg of Bcl-rambo expression plasmid and 0.5 μg of expression vectors encoding various apoptosis inhibitors, together with 0.5 μg of β-galactosidase expression vector.
# (§1) 293T cells (3×10^5 cells) were sown on 60 mm culture dishes on the day before the transfection and then transiently cotransfected with 2 μg of Bcl-rambo expression plasmids and 0.2 μg of EGFP expression vector (pEGFP-C1, from Clontech) or with 0.5 μg of pCMV-β-galactosidase expression vector. The postnuclear lyzates were then analyzed with regard to the fluorescence intensity of EGFP, the galactosidase activity and the caspase-3 activity using a peptide substrate (Ac-DEVD-AMC, from Alexis). In order to be able to compare the individual measurements, the caspase-3 activity (measured as the number of times it was increased by the induction) was standardized using the fluorescence intensity of EGFP or the β-galactosidase activity.
# [2] = test system: caspase-3 activity in 293T cells; assay: Caspase-3 activity / apoptosis in 293T cells transfected with Bcl-rambo constructs; format: cell-based, human; settings: 2 μg construct, 42 hours; for increase in caspase-3 activity (times increase in activity induced): standardized by EGFP fluorescence
# Description: FIG. 5 describes the Bcl-rambo-induced apoptosis which is induced by the C-terminal domain of Bcl-rambo. For this, 293T cells were transfected with 2 μg of various Bcl-rambo constructs, namely mock transfectants, full-length Bcl-rambo (amino acids 1-485), Bcl-rambo without the C-terminal anchor domain (amino acids 1-459), the N-terminal domain of homology with Bcl-2 (amino acids 1-223), the C-terminal domain containing the BHNo region (amino acids 205-485), the C-terminal domain without the anchor region (amino acids 205-459) and, finally, a truncated N-terminal domain (amino acids 1-201). All the abovementioned constructs are depicted diagrammatically in FIG. 5 (right-hand drawing), with the BH regions (BH4 (4), BH3 (3), BH1 (1) and BH2 (2)) and also, if present, the tandem repeats and/or the anchor regions (MA) being shown diagrammatically. The transfection, which took place jointly together with 0.2 μg of an EGFP expression vector, namely pEGFP-C1, lasted for 42 hours. The graph shown in the upper left of FIG. 5 plots the caspase-3 activity (as the times increase in activity induced). The activity in the individual experimental assays was standardized by taking into account the fluorescence intensity of transfected EGFP, i.e. the cotransfection with the EGFP expression vector was used to check the transfection rate in order to ensure that it was possible to compare the results in the different experimental assays.
# It follows from the results of the experiments depicted in FIG. 5 that the BHNo domain (and not, for example, the domain having homology with Bcl-2) is responsible for inducing cell death when Bcl-rambo is overexpressed. […] In the case of all the cell extracts, the strength of the expression of the individual constructs in the transfected cells was checked by Western blot analysis using anti-Flag antibody M2 (lower left-hand diagram in FIG. 5).
# as §1
# [3] = molecular target: T1, proapoptotic proteins Bax, Bak, Bik, Bid, Bim, Bad and Bcl-rambo (Homo sapiens, UniProt Q9BXK5); assay: Co-immunoprecipitation of Bcl-rambo with proapoptotic proteins of the Bcl-2 family in 293T cells; format: binding; settings: co-immunoprecipitation
# T1 construct: expressed in transfected cells; host or cells: 293T cells
# [4] = test system: proapoptotic proteins Bax, Bak, Bik, Bid, Bim, Bad and Bcl-rambo; assay: as above; format: binding; settings: anti-Flag M2 agarose immunoprecipitation, anti-EE blot, also with z-VAD-fmk
# [5] = test system: antiapoptotic proteins (Bcl-2, Bcl-XL, Bcl-w, A1, MCL-1, E1B-19K and BHRF1); assay: Co-immunoprecipitation of Bcl-rambo with antiapoptotic proteins of the Bcl-2 family in 293T cells; format: binding; settings: HA-labeled Bcl-rambo with Flag-labeled antiapoptotic protein
molecule,measurement,setting,value
"c-IAP2: apoptosis inhibitor of the IAP family, coexpressed",blocking of Bcl-rambo-induced cell death by coexpressed apoptosis inhibitor,"[1]; 293T cells, 27 hours, 2 μg Bcl-rambo plasmid, 0.5 μg inhibitor vector, standardized by β-galactosidase",act as inhibitors; also recorded: inhibitory effect
"COC(=O)C[C@H](NC(=O)[C@H](C)NC(=O)[C@@H](NC(=O)OCc1ccccc1)C(C)C)C(=O)CF [z-VAD-fmk, reference compound] (Cbz-Val-Ala-Asp(OMe)-CH2F)",suppression of Bcl-rambo-induced cell death by pancaspase inhibitor,[1]; not depicted in FIG. 6,completely suppressed
B1,effect on cell survival / induction of cell death on overexpression,[2],marked proapoptotic effect
same,increase in caspase-3 activity (times increase in activity induced),[2],approx. 70 fold
same,homodimer formation,[3],Nor can any homodimers be detected
same,protein/protein interaction with proapoptotic Bcl-2 family proteins,[4],not possible to detect any protein/protein interaction
same,interaction with antiapoptotic Bcl-2 family proteins,[5],not possible to detect any interactions; also recorded: no interactions were observed
B2,effect on cell survival / induction of cell death on overexpression,[2],no effect on cell survival rate
same,protein/protein interaction with proapoptotic Bcl-2 family proteins,[4],does not interact with other proteins of the Bcl-2 family
same,interaction with antiapoptotic Bcl-2 family proteins,[5],does not interact with other proteins of the Bcl-2 family
B3,increase in caspase-3 activity (times increase in activity induced),[2],approx. 80 fold
B4,effect on cell survival / induction of cell death on overexpression,[2],no effect on cell survival rate
B5,effect on cell survival / induction of cell death on overexpression,[2],no longer able to elicit cell death
